# Laboratory results reported in US11278600B2, “Human alpha-galactosidase variants” (Codexis, Inc., priority 2014, dated 2022).
# Residue numbers refer to the chain shown, from its start.
# B1: 372 (protein)
# chain: LDNGLARTPTMGWLHWERFMCNLDCQEEPDSCISEKLFMEMAEVMVSEGWKDAGYEYLCIDDCWMAPQRDSEGRLQADPQRFPHGIRQLANYVHSKGLKLGIYADVGNKTCAGFPGSFGYYDIDAQTFADWGVDLLKFDGCYCDSLENLADGYKHMSLALNRTGRSIVYSCEWPLYMWPFQKPNYTEIRQYCNHWRNFADIDDSWKSIKSILDWTSRNQERIVDVAGPGGWNDPDMLVIGNFGLSWDQQVTQMALWAIMAAPLFMSNDLRHISPQAKALLQDKDVIAINQDPLGKQGYQLRKGDNFEVWERPLSGDAWAVAIINRQEIGGPRSYTIPVASLGKGVACNPACFITQLLPVKRQLGFYNWTSRLKSHINPTGTVLLQLENTMQMSLKDLL
# modifications: Synthetic Polypeptide sequence of Variant No. 372 of mature Human GLA
# B2: 508 (protein)
# chain: LDNGLARTPTMGWLHWERFMCNLDCQEEPDSCISEKLFMEMAERMVSEGWKDAGYEYLCIDDCWMAPQRDSEGRLQADPQRFPHGIRQLANYVHSKGLKLGIYADVGNKTCAGFPGSFGYYDIDAQTFADWGVDLLKFDGCYCDSLENLADGYKHMSLALNRTGRSIVYSCEWPLYMWPFQKPNYTEIRQYCNHWRNFADIDDSWKSIKSILDWTSFNQERIVDVAGPGGWNDPDMLVIGNFGLSWNQQVTQMALWAIMAAPLFMSNDLRHISPQAKALLQDKDVIAINQDPLGKQGYQLRQGDNFEVWERPLSGLAWAVAMINRQEIGGPRSYTIAVASLGKGVACNPACFITQLLPVKRKLGFYEWTSRLRSHINPTGTVLAQLENTMQMSLKDLL
# modifications: Synthetic Polypeptide sequence of Variant No. 508 of mature Human GLA
# B3: 509 (protein)
# chain: B2 chain with A384L, Q385T
# modifications: Synthetic Polypeptide sequence of Variant No. 509 of mature Human GLA
# B4: 510 (protein)
# chain: B2 chain with A199G, A384L, M392R
# modifications: Synthetic Polypeptide sequence of Variant No. 510 of mature Human GLA
# B5: 373 (protein)
# chain: B1 chain with M41R, V44R
# modifications: Synthetic Polypeptide sequence of Variant No. 373 of mature Human GLA
# B6: 374 (protein)
# chain: B1 chain with V44M
# modifications: Synthetic Polypeptide sequence of Variant No. 374 of mature Human GLA
# B7: 375 (protein)
# chain: B1 chain with V44R, S47I
# modifications: Synthetic Polypeptide sequence of Variant No. 375 of mature Human GLA
# B8: 376 (protein)
# chain: B1 chain with M41P, V44R
# modifications: Synthetic Polypeptide sequence of Variant No. 376 of mature Human GLA
# B9: 377 (protein)
# chain: B1 chain with M39T, V44R
# modifications: Synthetic Polypeptide sequence of Variant No. 377 of mature Human GLA
# B10: 378 (protein)
# chain: B1 chain with V44T
# modifications: Synthetic Polypeptide sequence of Variant No. 378 of mature Human GLA
# B11: 379 (protein)
# chain: B1 chain with V44R, S47T
# modifications: Synthetic Polypeptide sequence of Variant No. 379 of mature Human GLA
# B12: 380 (protein)
# chain: B1 chain with V44R, Y92K
# modifications: Synthetic Polypeptide sequence of Variant No. 380 of mature Human GLA
# B13: 381 (protein)
# chain: B1 chain with V44R, Y92S
# modifications: Synthetic Polypeptide sequence of Variant No. 381 of mature Human GLA
# B14: 382 (protein)
# chain: B1 chain with V44R, H94N
# modifications: Synthetic Polypeptide sequence of Variant No. 382 of mature Human GLA
# Experiment: HTP-analysis of supernatants pretreated with base (MUGal hydrolysis)
# Format: biochemical
# Settings: activity of the variant/activity of Rd4BB (SEQ ID NO: 15); challenge at pH 9.65
# Outline: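 Fluorescence of released 4-MU (Ex 355 nm, Em 448 nm) after carbonate quench reports MUGal hydrolysis by GLA variants secreted from INVSc1 yeast. Before the acidic (pH 4.3-4.8) 30-180 min reaction at 37° C, supernatants had been pre-incubated at pH 7.0-9.7 for 1-18 h at 37° C.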
row,Molecule,Relative Activity of GLA Variants After Challenge at pH 9.65
1,B1,+ (0.5 to 1.5 relative activity over Rd4BB (SEQ ID NO: 15))
2,B2,− (<0.5 relative activity over Rd4BB (SEQ ID NO: 15))
3,B3,+ (0.5 to 1.5 relative activity over Rd4BB (SEQ ID NO: 15))
4,B4,+ (0.5 to 1.5 relative activity over Rd4BB (SEQ ID NO: 15))
5,B5,− (<0.5 relative activity over Rd4BB (SEQ ID NO: 15))
6,B6,+ (0.5 to 1.5 relative activity over Rd4BB (SEQ ID NO: 15))
7,B7,+ (0.5 to 1.5 relative activity over Rd4BB (SEQ ID NO: 15))
8,B8,− (<0.5 relative activity over Rd4BB (SEQ ID NO: 15))
9,B9,− (<0.5 relative activity over Rd4BB (SEQ ID NO: 15))
10,B10,+ (0.5 to 1.5 relative activity over Rd4BB (SEQ ID NO: 15))
11,B11,+ (0.5 to 1.5 relative activity over Rd4BB (SEQ ID NO: 15))
12,B12,− (<0.5 relative activity over Rd4BB (SEQ ID NO: 15))
13,B13,− (<0.5 relative activity over Rd4BB (SEQ ID NO: 15))
14,B14,− (<0.5 relative activity over Rd4BB (SEQ ID NO: 15))

# Experiment: HTP-analysis of supernatants pretreated with acid (MUGal hydrolysis)
# Format: biochemical
# Settings: activity of the variant/activity of Rd4BB (SEQ ID NO: 15); challenge at pH 3.7
# Outline: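 Yeast INVSc1 supernatant, GLA variants; acid challenge: McIlvaine pH 3.3-4.3, 37° C., 1-3 h. Assay: MUGal in McIlvaine pH 4.8 plus citrate pH 4.3, 37° C., 30-180 min, Na2CO3 stop, Ex 355/Em 448 nm.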
row,Molecule,Relative Activity of GLA Variants After Challenge at pH 3.7
1,B1,− (<0.5 relative activity over Rd4BB (SEQ ID NO: 15))
2,B2,− (<0.5 relative activity over Rd4BB (SEQ ID NO: 15))
3,B3,+ (0.5 to 1.5 relative activity over Rd4BB (SEQ ID NO: 15))
4,B4,− (<0.5 relative activity over Rd4BB (SEQ ID NO: 15))
5,B5,− (<0.5 relative activity over Rd4BB (SEQ ID NO: 15))
6,B6,+ (0.5 to 1.5 relative activity over Rd4BB (SEQ ID NO: 15))
7,B7,+ (0.5 to 1.5 relative activity over Rd4BB (SEQ ID NO: 15))
8,B8,− (<0.5 relative activity over Rd4BB (SEQ ID NO: 15))
9,B9,++ (>1.5 to 2.5 relative activity over Rd4BB (SEQ ID NO: 15))
10,B10,− (<0.5 relative activity over Rd4BB (SEQ ID NO: 15))
11,B11,++ (>1.5 to 2.5 relative activity over Rd4BB (SEQ ID NO: 15))
12,B12,+ (0.5 to 1.5 relative activity over Rd4BB (SEQ ID NO: 15))
13,B13,+ (0.5 to 1.5 relative activity over Rd4BB (SEQ ID NO: 15))
14,B14,− (<0.5 relative activity over Rd4BB (SEQ ID NO: 15))

# Experiment: HTP-analysis of yeast culture supernatants, no challenge (MUGal hydrolysis)
# Format: biochemical
# Settings: activity of the variant/activity of Rd4BB (SEQ ID NO: 15)
# Outline: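 GLA variants were expressed in INVSc1 yeast grown in SD-Ura broth with glucose at 30° C., and culture supernatants were collected after 66-84 h. Supernatant was mixed with McIlvaine buffer pH 4.8 and MUGal (2 mM stock) in 50 mM citrate, 200 mM KCl, pH 4.6, incubated at 37° C. for 30-180 minutes, then quenched with sodium carbonate.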
row,Molecule,Relative Activity of GLA Variants After No Challenge (NC)
1,B1,+ (0.5 to 1.5 relative activity over Rd4BB (SEQ ID NO: 15))
2,B2,− (<0.5 relative activity over Rd4BB (SEQ ID NO: 15))
3,B3,+ (0.5 to 1.5 relative activity over Rd4BB (SEQ ID NO: 15))
4,B4,+ (0.5 to 1.5 relative activity over Rd4BB (SEQ ID NO: 15))
5,B5,− (<0.5 relative activity over Rd4BB (SEQ ID NO: 15))
6,B6,+ (0.5 to 1.5 relative activity over Rd4BB (SEQ ID NO: 15))
7,B7,+ (0.5 to 1.5 relative activity over Rd4BB (SEQ ID NO: 15))
8,B8,− (<0.5 relative activity over Rd4BB (SEQ ID NO: 15))
9,B9,+ (0.5 to 1.5 relative activity over Rd4BB (SEQ ID NO: 15))
10,B10,+ (0.5 to 1.5 relative activity over Rd4BB (SEQ ID NO: 15))
11,B11,+ (0.5 to 1.5 relative activity over Rd4BB (SEQ ID NO: 15))
12,B12,+ (0.5 to 1.5 relative activity over Rd4BB (SEQ ID NO: 15))
13,B13,+ (0.5 to 1.5 relative activity over Rd4BB (SEQ ID NO: 15))
14,B14,− (<0.5 relative activity over Rd4BB (SEQ ID NO: 15))
